# Results taken from PMC9657779, “Regulatory Role of Sphingosine-1-Phosphate and C16:0 Ceramide, in Immunogenic Cell Death of Colon Cancer Cells Induced by Bak/Bax-Activation” (Cancers, 2022).
# B1: calreticulin (natural protein, human (endogenous in DLD-1), UniProt P27797 18-417, looked up)
# chain: EPAVYFKEQFLDGDGWTSRWIESKHKSDFGKFVLSSGKFYGDEEKDKGLQTSQDARFYALSASFEPFSNKGQTLVVQFTVKHEQNIDCGGGYVKLFPNSLDQTDMHGDSEYNIMFGPDICGPGTKKVHVIFNYKGKNVLINKDIRCKDDEFTHLYTLIVRPDNTYEVKIDNSQVESGSLEDDWDFLPPKKIKDPDASKPEDWDERAKIDDPTDSKPEDWDKPEHIPDPDAKKPEDWDEEMDGEWEPPVIQNPEYKGEWKPRQIDNPDYKGTWIHPEIDNPEYSPDPSIYAYDNFGVLGLDLWQVKSGTIFDNFLITNDEAYAEEFGNETWGVTKAAEKQMKDKQDEEQRLKEEEEDKKRKEEEEAEDKEDDEDKDEDEEDEEDKEEDEEEDVPGQAKDEL
# notes: calreticulin (CRT), the normally ER resident chaperone, endogenous in human colorectal DLD-1 cells; Seen as a disulfide-linked dimer on Western blots run under non-reducing conditions; also called CRT; ectoCRT; source: endogenous, DLD-1 whole cell lysate (RIPA)
# Molecular target: the molecule itself
# Experiment: non-reducing SDS-PAGE and Western blot; whole cell lysates of DLD-1 cells treated with ABT/AZD or MTX, with or without PF-543 (also thapsigargin, fumonisin B1; CerS6 knock-out cells), under non-reducing conditions, blotted for CRT; disulfide-linked dimer
protein,measurement,value
B1,stoichiometry N,2
